Data on 1 substance can be found in doi:10.1101/188169.

The target in the assay is endogenous α-SYN from human postmortem brain (substantia nigra) (human (endogenous in postmortem brain)) (UniProt P37840).

With “endogenous α-SYN from human postmortem brain (substantia nigra) (from UniProt P37840 1-140) (natural protein)”, the percent of detected α-SYN that is oligomeric (PD brain) came out at 56% and the percent of detected α-SYN that is oligomeric (control brain) amounted to 23%.
